{
  "source": "patent US6300103A",
  "about": "“Anti-microbial proteins” (Syngenta Participants AG, priority 1993, dated 2001)",
  "molecules": {"B1": {"name": "peak 3.1: anti-microbial protein of about 7 kDa from sugar beet leaf intercellular washing fluid, peak 3.1 in FIG. 3 (protein)", "chain": "ITCGLVASKLAPCIGYLQGAPGPSAGCCGGIKGLNSAAASPADRKTACTCLKSAATSIKGINYGKAASLPRQCGVSVPYAISPNTNCNAIH"}, "B2": {"name": "peak 3.2: anti-microbial protein of about 7 kDa from sugar beet leaf intercellular washing fluid, peak 3.2 in FIG. 3 (protein)", "chain": "B1 chain with I58M, V77I"}},
  "note": "Numbering of substitutions follows the chain as printed. Ends that are not written are not given here.",
  "data": [
    {"tested_on": "C. beticola", "assay": "microtiter plate bioassay of inhibition of fungal growth (absorbance at 620 nm)", "assay_type": "cell-based", "details": "spores of C. beticola in 96 well micro-titre plates, FIGS. 4, 7-8 (10 ug alone, 2 ug each in combination)", "protocol": "The thus obtained IWF is fractionated by cation exchange chromatography on a 10 ml CM-Sepharose column (Pharmacia LKB) pre-equilibrated in starting buffer (20 mM HAc (pH 4.5)). The fractionation is performed at 4° C. at a flow rate of 25 ml/h. Fractions of 3 ml are collected. Proteins not bound to the column are removed by extensive washing of the column with starting buffer. Bound proteins are eluted by applying to the column further starting buffer comprising stepwise increased salt concentrations: viz, 0.1 M NaCg, 0.3 M NACl and 0.5 M NaCl. The absorbance at 280 nm of the eluate is measured, and fractions judged to comprise protein are tested for their anti-fungal activity against C. beticola using the microtiter plate bioassay described previously (PCT Patent Application No. PCT/DK92/00108, Publication No. WO 92/17591, now assigned to Sandoz LTD). […] The inhibition of fungal growth is measured in 96 well micro-titre plates at 620 nm, essentially as described in WO 92/17591. […] The proteins, either alone or in combination with WIN N (which is purified from barley grain or stressed barley leaf as described by Hejgaard et al (FEBS Letters, 307, 389-392 (1992)), and/or a protein having a sequence corresponding to at least one of those given in SEQ ID Nos. 4-6, are incubated with spores of C. beticola. The assay mix (240 ul) contains 100 ul of potato dextrose broth (Difco), 40 ul protein sample (or buffer control) in 100 mM Tris and 20 mM NaCl (pH 8.0) as well as approximately 400 spores in 100 ul water. The micro-titre plates are sealed with tape to avoid evaporation and contamination and subsequently incubated at room temperature on an agitator operated at 200 rpm. The absorbance at 620 nm is measured each day for 8 days and plotted for each concentration of protein vs time.", "values": [
      {"molecule": "peaks 1 and 2: anti-microbial protein of 2.5-3 kDa (dimer about 5 kDa) from sugar beet, peaks 1 and 2 in FIG. 6 (SGECNMYGRCPPGYCCSKFGYCGVGRAYCG; cysteine pairing not given here; also: dimer about 5 kDa)", "anti-fungal activity (inhibition of fungal growth)": "significant anti-fungal activity"},
      {"molecule": "B1", "anti-fungal activity (inhibition of fungal growth)": "significant anti-fungal activity"},
      {"molecule": "B2", "anti-fungal activity (inhibition of fungal growth)": "significant anti-fungal activity"}
    ]}
  ]
}
